According to patent US7256011:

System: PL-FXa-b2AR fusion protein (ED - Factor Xa cleavage site - beta2-adrenergic receptor) on HEK293 transient transfectant cells

Factor Xa
EFC activity (relative luminescent units, RLU): a difference in about 30,000 RLUs was observed over a range in concentration of FXa of about 10^-3 to 10^1 ug/mL
